Results published in patent US20240117030A1 (Pfizer, published 2024).
Numbering of substitutions follows the chain as printed. Where “and” joins values, the source holds several entries; their conditions need not be identical. Equal values may be shown once. Values belong to the binder of their own block, whether it stands above or below them.

Legend:
[1] = biological target: T1, recombinant human IL-4 (human, UniProt P05112 25-153); experiment: cell-based or functional assay
T1 sequence (looked up): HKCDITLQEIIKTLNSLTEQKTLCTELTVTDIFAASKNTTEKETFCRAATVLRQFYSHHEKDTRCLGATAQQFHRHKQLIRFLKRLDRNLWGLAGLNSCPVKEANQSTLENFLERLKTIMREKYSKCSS

[2] = biological target: T2, recombinant dog IL-4 (dog, UniProt O77762 25-132); experiment: competition ELISA: test species IL-4 against biotinylated human IL-4 for binding to IL4-1305
T2 sequence (looked up): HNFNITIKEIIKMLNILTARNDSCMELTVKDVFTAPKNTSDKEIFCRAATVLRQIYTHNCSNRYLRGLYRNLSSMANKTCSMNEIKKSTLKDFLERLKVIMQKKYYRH
Experimental: (§1) Recombinant human, mouse, rat, dog, and rabbit IL 4 were purchased from R&D Systems (Minneapolis, MN). Recombinant cynomolgus monkey and sheep IL-4 were prepared by Pfizer, Cambridge, MA).

[3] = biological target: T3, recombinant sheep IL-4 (sheep, UniProt P30368 25-135, limits assumed); experiment: as above
T3 sequence (looked up): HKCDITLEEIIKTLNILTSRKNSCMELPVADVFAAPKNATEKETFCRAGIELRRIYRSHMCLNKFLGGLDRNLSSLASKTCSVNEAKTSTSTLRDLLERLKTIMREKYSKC
Experimental: as §1

[4] = biological target: T4, recombinant rabbit IL-4 (rabbit, UniProt Q9MZR8 25-147, limits assumed); experiment: as above
T4 sequence (looked up): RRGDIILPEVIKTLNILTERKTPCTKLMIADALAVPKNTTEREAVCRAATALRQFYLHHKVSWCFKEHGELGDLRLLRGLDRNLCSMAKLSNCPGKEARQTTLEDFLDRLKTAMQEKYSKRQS
Experimental: as §1

[5] = biological target: T5, recombinant rat IL-4 (rat, UniProt P20096 25-147, limits assumed); experiment: as above
T5 sequence (looked up): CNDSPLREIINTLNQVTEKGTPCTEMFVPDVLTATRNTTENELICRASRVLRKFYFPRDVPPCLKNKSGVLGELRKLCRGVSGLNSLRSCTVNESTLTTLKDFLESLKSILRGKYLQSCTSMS
Experimental: as §1

[6] = biological target: T6, recombinant mouse IL-4 (mouse, UniProt P07750 23-140); experiment: as above
T6 sequence (looked up): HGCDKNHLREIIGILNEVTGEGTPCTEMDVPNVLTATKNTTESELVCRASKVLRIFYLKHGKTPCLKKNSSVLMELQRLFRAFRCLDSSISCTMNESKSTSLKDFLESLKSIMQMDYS
Experimental: as §1

[7] = biological target: T7, recombinant cynomolgus monkey IL-4 (cynomolgus monkey, UniProt P79339 25-153); experiment: as above
T7 construct: also called Cyno IL-4
T7 sequence (looked up): T1 sequence (looked up) with E26K, V29I, F33L
Experimental: as §1

[8] = biological target: T8, rat IL-4 (rat, UniProt P20096 25-147, limits assumed); experiment: ELISA: competition with biotinylated human IL-4 for binding to IL4-1305
T8 construct: also called rt IL-4
T8 sequence (looked up): T5 sequence (looked up)
Experimental: as §1

[9] = biological target: T9, rabbit IL-4 (rabbit, UniProt Q9MZR8 25-147, limits assumed); experiment: as above
T9 construct: also called rb IL-4
T9 sequence (looked up): T4 sequence (looked up)
Experimental: as §1

[10] = biological target: T10, mouse IL-4 (mouse, UniProt P07750 23-140); experiment: as above
T10 construct: also called mu IL-4
T10 sequence (looked up): T6 sequence (looked up)
Experimental: as §1

[11] = biological target: T11, dog IL-4 (dog, UniProt O77762 25-132); experiment: as above
T11 sequence (looked up): T2 sequence (looked up)
Experimental: as §1

[12] = biological target: T12, cynomolgus monkey IL-4 (cynomolgus monkey, UniProt P79339 25-153); experiment: as above
T12 construct: mature; also called cy IL-4; cyno IL-4
T12 sequence (looked up): T1 sequence (looked up) with E26K, V29I, F33L
Experimental: as §1

[13] = biological target: T13, sheep IL-4 (sheep, UniProt P30368 25-135, limits assumed); experiment: as above
T13 sequence (looked up): T3 sequence (looked up)
Experimental: as §1

[14] = biological target: T14, recombinant human IL-13 (human, UniProt P35225 35-146); experiment: cell-based or functional assay
[15] = biological target: T14, recombinant human IL-13; experiment: cell-based or functional assay; remark: listed apart in the source
[16] = biological target: native human IL-13 (human, UniProt P35225 35-146, limits assumed); experiment: cell-based or functional assay
[17] = biological target: T14, recombinant human IL-13; experiment: cell-based or functional assay; remark: listed apart in the source
[18] = biological target: T14, recombinant human IL-13; experiment: cell-based or functional assay; remark: listed apart in the source
[19] = biological target: T15, recombinant dog IL-13 (dog, UniProt Q9N0W9 19-131, limits assumed); experiment: competition ELISA: test species IL-13 against biotinylated human IL-13 for binding to IL13-0001
T15 sequence (looked up): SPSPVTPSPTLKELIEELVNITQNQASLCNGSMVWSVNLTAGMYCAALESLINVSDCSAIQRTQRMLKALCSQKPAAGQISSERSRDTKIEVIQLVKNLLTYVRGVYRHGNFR
Text: (§2) Recombinant human, mouse, rat, and dog IL 13 were purchased from R&D Systems (Minneapolis, MN). Recombinant sheep and rabbit IL-13 were produced by Pfizer Global Biotechnologies (PGBT, Cambridge, MA). Recombinant cynomolgus monkey IL 13 was purchased from Sino Biological (Beijing, China).

[20] = biological target: T16, recombinant cynomolgus monkey IL-13 (cynomolgus monkey, UniProt Q0PW92 19-132); experiment: as above
T16 construct: also called Cyno IL-13
Text: as §2

[21] = biological target: T17, recombinant mouse IL-13 (mouse, UniProt P20109 26-131, limits assumed); experiment: as above
T17 sequence (looked up): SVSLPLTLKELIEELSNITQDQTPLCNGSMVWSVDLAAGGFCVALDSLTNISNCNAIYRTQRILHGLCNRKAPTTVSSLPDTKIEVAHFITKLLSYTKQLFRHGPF
Text: as §2

T14 sequence (P35225 35-146 limits assumed): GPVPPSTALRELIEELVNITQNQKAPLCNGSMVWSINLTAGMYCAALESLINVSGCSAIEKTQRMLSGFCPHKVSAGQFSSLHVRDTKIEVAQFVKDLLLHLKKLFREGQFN
T16 sequence (Q0PW92 entry or part of it limits assumed): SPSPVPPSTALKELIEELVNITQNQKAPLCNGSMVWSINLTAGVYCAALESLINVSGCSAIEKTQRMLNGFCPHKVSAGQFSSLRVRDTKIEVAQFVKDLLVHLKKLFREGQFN
native human IL-13, sequence (P35225 35-146 limits assumed): as the sequence (P35225 35-146 limits assumed) above

IC50 for STAT6 Phosphorylation in gated B Cells, human whole blood [1]: 73 pM
IC50 for STAT6 Phosphorylation in gated Monocytes, human whole blood [1]: 100 pM
IC50 for STAT6 Phosphorylation in gated T cells, human whole blood [1]: 75 pM
binding result [2]: no binding
binding result [3]: no binding
binding result [4]: no binding
binding result [5]: no binding
binding result [6]: no binding
binding result [7]: binds
B1: IL4-1305 (antibody, human IgG1, kappa)
heavy: EVTLRESGPALVKPTQTLTLTCTFSGFSLSNFGEGLSWIRQPPGKGLEWLAHIYWDDDKRYNPSLKSRLTISKDTSRNQVVLTMTNMDPVDTATYYCARRETVFYWYFDVWGRGTPVTVSSASTKGPSVFPLAPSSKSTSGGTAALGCLVKDYFPEPVTVSWNSGALTSGVHTFPAVLQSSGLYSLSSVVTVPSSSLGTQTYICNVNHKPSNTKVDKKVEPKSCDKTHTCPPCPAPEAAGAPSVFLFPPKPKDTLMISRTPEVTCVVVDVSHEDPEVKFNWYVDGVEVHNAKTKPREEQYNSTYRVVSVLTVLHQDWLNGKEYKCKVSNKALPAPIEKTISKAKGQPREPQVYTLPPSREEMTKNQVSLTCLVKGFYPSDIAVEWESNGQPENNYKTTPPVLDSDGSFFLYSKLTVDKSRWQQGNVFSCSVMHEALHNHYTQKSLSLSPGK
light: DIQMTQSPSSLSASVGDRVTITCKASQSVDEDGDSYMNWYQQKPGKAPKLLIYAASNLESGVPSRFSGSGSGTDFTLTISSLQPEDFATYYCQQSNEDPPTFGGGTKVEIKRTVAAPSVFIFPPSDEQLKSGTASVVCLLNNFYPREAKVQWKVDNALQSGNSQESVTEQDSKDSTYSLSSTLTLSKADYEKHKVYACEVTHQGLSSPVTKSFNRGEC

binding result [8]: no binding
binding result [9]: no binding
binding result [10]: no binding
binding result [11]: no binding
binding result [12]: binds
binding result [13]: no binding
B2: IL4-1305 (antibody, IgG1)
VH: EVTLRESGPALVKPTQTLTLTCTFSGFSLSNFGEGLSWIRQPPGKGLEWLAHIYWDDDKRYNPSLKSRLTISKDTSRNQVVLTMTNMDPVDTATYYCARRETVFYWYFDVWGRGTPVTVSS
light: B1 light
notes: IgG1 effector-null

IC50 (median) for STAT6 Phosphorylation in gated B Cells, human whole blood [14]: 66.5 pM
IC50 (median) for STAT6 Phosphorylation in gated Monocytes, human whole blood [14]: 525 pM
IC50 (median), IL-13 induced CD23 expression on human monocytes [15]: 4.38 pM
IC50 (median), STAT6 phosphorylation in HT-29 cells [16]: 79 pM
IC50 (median), Monocyte CD23 expression [17]: 10.5 pM
IC50 (median), STAT6 phosphorylation in HT-29 cells [17]: 92 pM
IL-13 induced CD23 upregulation (IC50), parental IgG [18]: 4.7 pM and 4.38 pM
binding result [19]: no binding
binding result [20]: binds
binding result [21]: no binding
B3: IL13-0001 (antibody, human IgG1, kappa, V domains shown)
VH: EVQLVESGGGLVQPGGSLRLSCAASGFTFSSYAMSWVRQAPGKGLEWVASISSGDTTYYPDSVKGRFTISRDNAKNSLYLQMNSLRAEDTAVYYCARNEGYYFGLTLWGQGTLVTVSS
VL: DIQMTQSPSSLSASVGDRVTITCKASESVDHFGWSLVHWYQQKPGKAPKLLIYRASNLESGVPSRFSGSGSGTDFTLTISSLQPEDFATYYCQQSNEDPWTFGGGTKVEIKR
notes: also called IL13433-0001; 1RVHC9-VLA4
